One block for each binder: values may come before it.
Columns and labels:
roledumab (human) [1] = test: SEC + native MS
roledumab (human) [2] = test: native MS
[3] = target: F(ab’)2 fragment of roledumab (IdeS digestion) (human); test: SEC + native MS
[4] = target: F(ab’)2 fragment of roledumab (IdeS digestion) (human); test: native MS
[5] = target: Fab fragment of roledumab (IgdE digestion) (human); test: SEC + native MS
[6] = target: Fab fragment of roledumab (IgdE digestion) (human); test: native MS

relative abundance of dimer peak 1 (UV) (roledumab (human) [1]): 46%
relative abundance of dimer peak 2 (UV) (roledumab (human) [1]): 32%
relative abundance of dimer peak 3 (UV) (roledumab (human) [1]): 13%
stoichiometry N (roledumab (human) [1]): 2
relative abundance of dimer peak 2 (UV) (roledumab (human) [2]): 20%
relative abundance of dimer peak 3 (UV) (roledumab (human) [2]): 13%
relative abundance of dimer peak 4 (UV) (roledumab (human) [2]): 65%
stoichiometry N (roledumab (human) [2]): 2
B1: roledumab (antibody, V domains shown)
VH: QVQLVESGGGVVQPGRSLRLSCTASGFTFKNYAMHWVRQAPAKGLEWVATISYDGRNIQYADSVKGRFTFSRDNSQDTLYLQLNSLRPEDTAVYYCARPVRSRWLQLGLEDAFHIWGQGTMVTVSS
VL: AIRMTQSPSSFSASTGDRVTITCRASQDIRNYVAWYQQKSGKAPKFLIYAASTLQSGVPSRFSGSGSGTDFTLTINSLQSEDFATYYCQQYYNSPPTFGQGTRVEIT
percent HMW species in the isolated HMW fraction (SEC): 85% of HMW species (peak 2)

relative abundance of F(ab’)2 dimer peak 1 (UV) [3]: 32%
relative abundance of F(ab’)2 dimer peak 2 (UV) [3]: 16%
relative abundance of F(ab’)2 dimer peak 3 (UV) [3]: 8%
stoichiometry N [3]: 2
relative abundance of F(ab’)2 dimer (UV) [4]: 54%
stoichiometry N [4]: 2
B2: F(ab’)2 fragment of roledumab (IdeS digestion) (domain or fragment)
VH: QVQLVESGGGVVQPGRSLRLSCTASGFTFKNYAMHWVRQAPAKGLEWVATISYDGRNIQYADSVKGRFTFSRDNSQDTLYLQLNSLRPEDTAVYYCARPVRSRWLQLGLEDAFHIWGQGTMVTVSS
VL: AIRMTQSPSSFSASTGDRVTITCRASQDIRNYVAWYQQKSGKAPKFLIYAASTLQSGVPSRFSGSGSGTDFTLTINSLQSEDFATYYCQQYYNSPPTFGQGTRVEIT

stoichiometry N [5]: 2
relative abundance of Fab dimers (UV) [6]: 10%
stoichiometry N [6]: 2
B3: Fab fragment of roledumab (IgdE digestion) (Fab, V domains shown)
VH: QVQLVESGGGVVQPGRSLRLSCTASGFTFKNYAMHWVRQAPAKGLEWVATISYDGRNIQYADSVKGRFTFSRDNSQDTLYLQLNSLRPEDTAVYYCARPVRSRWLQLGLEDAFHIWGQGTMVTVSS
VL: AIRMTQSPSSFSASTGDRVTITCRASQDIRNYVAWYQQKSGKAPKFLIYAASTLQSGVPSRFSGSGSGTDFTLTINSLQSEDFATYYCQQYYNSPPTFGQGTRVEIT
